T1: Human epidermal growth factor (EGF)-like domain multiple 6 (EGFL6) protein (human, UniProt Q8IUX8 22-553)
T1 construct: Secreted protein; also called human EGFL6; recombinant human EGFL6
T1 sequence (looked up): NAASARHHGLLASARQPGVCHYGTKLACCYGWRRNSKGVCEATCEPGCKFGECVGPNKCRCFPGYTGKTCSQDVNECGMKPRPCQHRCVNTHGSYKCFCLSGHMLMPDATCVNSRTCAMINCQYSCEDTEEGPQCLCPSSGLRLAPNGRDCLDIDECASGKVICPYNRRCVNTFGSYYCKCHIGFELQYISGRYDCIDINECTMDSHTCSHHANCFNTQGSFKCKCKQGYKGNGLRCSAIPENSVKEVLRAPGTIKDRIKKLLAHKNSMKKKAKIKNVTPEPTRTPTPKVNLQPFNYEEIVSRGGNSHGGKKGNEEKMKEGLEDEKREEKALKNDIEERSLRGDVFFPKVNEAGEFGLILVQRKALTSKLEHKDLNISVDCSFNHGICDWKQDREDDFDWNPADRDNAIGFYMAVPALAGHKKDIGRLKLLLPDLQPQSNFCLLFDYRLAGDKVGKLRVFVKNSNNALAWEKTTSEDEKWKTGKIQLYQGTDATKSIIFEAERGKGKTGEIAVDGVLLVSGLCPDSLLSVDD

B1: E2-93 monoclonal antibody (antibody, V domains shown)
VH: QSVKESEGGLVQPEGSLTLTCKASGFSFSSYGVNWVRQAPGKGLEWIAYIGLSSEITYYAGWAKGRFTISKPSSTTVTLQMTSLTAADTATYFCVRDLYHSNGLWGPGTLVTISS
VL: ELDLTQTPSPVSAAVGGTVTVSCQASESVYNNNRLSWYQQKPGQPPKLLIYYASTLASGVPSRFSGSGSGTQFTLTISSVQCADAATYYCVAFKGYGTDGNAFGGGTEVEIK
notes: Rabbit variable domains; also called Mab #93; mAb93
B2: E2-135 monoclonal antibody (antibody, V domains shown)
VH: QSVKESEGDLVKPGASLTLTCKASGFDFSSSYFMCWVRQAPGRGLEWIACIYTVISRKTYYASWAKGRFTISKTSATTVDLQMTSLTAADTATYFCARSATIERLDLWGQGTLVTVSS
VL: ELDLTQTPSPVSAPVGGTVTINCQASESVYNNYRLSWYQQKPGQPPKLLIYAASTLASGVPSRFKGSGSGTQFTLAISDVVCDDAATYYCVGYKSGYIDSIPFGGGTEVVVK
notes: Rabbit variable domains; also called mAb135
B3: E1-34 monoclonal antibody (antibody, V domains shown)
VH: EQSVKESGGGLVQPEGSLTLTCTASGFSFSSIYWICWVRQAPGKGLELIACIQITSGITYYASWAKGRFTISKMSSTTVTLQMTSLTVADTATYFCGRRGYGAYAGTGASDLWGPGTLVTVSS
VL: ELDLTQTASSVSAAVGGTVTINCQSSQSVYNNNNLAWYQQKPGQPPKLLIYEASKLASGVPSRFKGSGSGTQFTLTISGVQCDDAATYYCAGGYAGYIWAFGGGTEVVVK
notes: Rabbit variable domains
B4: E1-142 monoclonal antibody (antibody, V domains shown)
VH: QSLEESGGDLVKPGASLTLTCTASGFTINNYNINWVRQAPGKGLEWIARIWNGDGSTYYASWAKGRFTISKTSSTTVTLQMTSLTAADTATYFCARNFNLWGPGTLVTISS
VL: ELVLTQTPSPVSAAVGGTVTINCQSSASVYSNNYLSWFQQKPGQPPKPLIYYASTLASGVPSRFKGSGSGTQFTLTISDVQCDDAATYYCAGDYSSSSDMCIFGGGTELEIK
notes: Rabbit variable domains
B5: E1-38 monoclonal antibody (antibody, V domains shown)
VH: EQSVKESGGDLVKPEGSLTLTCTASGFSFNSGYWVCWVRQAPGKGLEWIACIYTSSPTGAIYYATWAKGRFTISQTSSTTVTLQMTSLTAADTATYFCTRDNFGGGGSASKLWGPGTLVTISS
VL: ELVMTQTPSSKSVPVGGTVTIDCQASESVYSNNRCAWYQQKPGQPPKLLIYYASTLASGVPSRFKCSGSGTRFTLTISGVQCEDAATYYCAGYKTADSDGLGFGGGTEVEIK
notes: Rabbit variable domains

The target of the test is T1, Human epidermal growth factor …. The test can be described thus: ELISA titration on coated EGFL6, 4-parameter curve fit. The method, then: Binding of EGFL6 by monoclonal antibodies was first screened by ELISA using supernatants collected from the B cell cultures (FIG. 2). ELISA titration was used to determine the binding affinity of a panel of monoclonal antibodies to EGFL6 antigen (FIG. 3). Binding constants (KD and/or EC 50) of a panel of monoclonal antibodies were estimated using the 4 parameter curve fitting with Prism GraphPad program. For Biacore analysis, all experiments were performed at 25° C. at a flow rate of 45 μl/min. An anti-human IgG Fc antibody (from ThermoFisher, at 50 μg/ml each in acetate buffer, pH 5.0) was immobilized onto a carboxymethyl dextran sensorchip (CMS) using amine coupling procedures based on instruction from the manufacturer. Purified rabbit/human chimeric antibody to be tested was diluted at a concentration of 5 μg/ml in 0.5% P20, HBS-EP buffer and injected on FC2 to reach 500 to 1000 RU. FC1 was used as the reference cell. Specific signals correspond to the difference of signals obtained on FC2 versus FC1. The analyte (recombinant human EGFL6, apparent molecular weight 60 kDa on SDS-PAGE gel) was injected during 90 sec at series of concentration dilutions (100, 50, 25, 12.5, 6.25, and 3.13, 1.56 nM) in 0.5% P20, HBS-EP buffer. These concentrations were prepared from stock solution in 0.5% P20, HBS-EP. The dissociation phase of the analyte was monitored over a 30 minutes period. Running buffer was also injected under the same conditions as a double reference. After each running cycle, both flow cells were regenerated by injecting 20 to 45 μl of Glycine-HCl buffer pH 1.5. Binding KD on EGFL6 was calculated by koff/kₒₙ kinetic rate for each EGFL6 monoclonal antibodies (Table 3).
The molecule B1 yielded an EC50 of 0.37 ng/mL.

With B2, the EC50 stood at 0.44 ng/mL. The EC50 values of the last two molecules are within 1.5-fold of each other.

Take B3: the EC50 amounted to 0.78 ng/mL.

The molecule B4 returned an EC50 of 1.91 ng/mL. This EC50 is about 2.4-fold higher than that of the molecule before.

The molecule B5 displayed an EC50 of 5.81 ng/mL.

Broadly, the EC50 is the midpoint of the concentration-response curve.
